Measurements: PMC6016250

Key:
[1] = biological target: Toll-like receptor 4 on the surface of RAW 264.7 murine macrophages (mouse (endogenous in RAW 264.7)) (UniProt Q9QUK6)
[2] = biological target: Toll-like receptor 4 on the surface of RAW 264.7 murine macrophages (mouse (endogenous in RAW 264.7)) (UniProt Q9QUK6); remark: listed apart in the source
[3] = biological target: Toll-like receptor 4 on the surface of RAW 264.7 murine macrophages (mouse (endogenous in RAW 264.7)) (UniProt Q9QUK6); remark: listed apart in the source

UniProt Q9QUK6, sequence (Q9QUK6 26-835): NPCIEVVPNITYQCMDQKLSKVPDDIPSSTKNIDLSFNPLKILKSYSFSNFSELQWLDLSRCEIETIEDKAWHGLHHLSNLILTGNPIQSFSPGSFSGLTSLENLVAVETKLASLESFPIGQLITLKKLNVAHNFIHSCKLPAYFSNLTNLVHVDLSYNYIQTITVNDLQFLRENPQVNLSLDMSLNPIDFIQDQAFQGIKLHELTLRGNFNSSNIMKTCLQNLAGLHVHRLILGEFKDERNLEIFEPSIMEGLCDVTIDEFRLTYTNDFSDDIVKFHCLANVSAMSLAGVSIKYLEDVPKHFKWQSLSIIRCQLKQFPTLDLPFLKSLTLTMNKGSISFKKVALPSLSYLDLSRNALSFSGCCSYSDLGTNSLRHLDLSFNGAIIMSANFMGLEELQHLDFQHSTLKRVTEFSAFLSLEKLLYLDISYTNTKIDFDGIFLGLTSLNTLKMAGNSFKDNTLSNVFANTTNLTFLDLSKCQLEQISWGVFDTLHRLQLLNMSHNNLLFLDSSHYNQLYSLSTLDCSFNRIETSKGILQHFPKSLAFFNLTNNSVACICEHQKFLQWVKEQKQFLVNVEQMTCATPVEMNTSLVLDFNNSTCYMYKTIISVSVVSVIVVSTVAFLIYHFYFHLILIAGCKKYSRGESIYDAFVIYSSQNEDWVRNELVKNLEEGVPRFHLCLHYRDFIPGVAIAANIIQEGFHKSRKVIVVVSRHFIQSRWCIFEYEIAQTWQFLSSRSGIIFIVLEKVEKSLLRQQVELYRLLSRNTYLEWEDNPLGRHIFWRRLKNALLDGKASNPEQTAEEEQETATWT

recombinant Rv0297PGRS (PGRS domain of the Mycobacterium tuberculosis PE_PGRS protein Rv0297) (from UniProt Q6MX50 1-591) (domain or fragment)
total percentage of apoptotic RAW 264.7 cells (annexin V/PI staining) with 20 and 40 µg/ml rRv0297PGRS (43.83% and 58.37%) [1]: 58.4% | fold increase of NO (Griess reagent) in RAW 264.7 cells stimulated with 20 µg/ml rRv0297PGRS for 30 h in contrast to unstimulated cells; unchanged in RAW-ΔTLR4 cells [2]: 2 fold | fold increment of ROS (CellROX green) in RAW 264.7 cells stimulated with rRv0297PGRS for 30 h compared to untreated cells (1.53 and 1.80); unchanged in RAW-ΔTLR4 cells [2]: 1.8 fold | mortality of RAW 264.7 macrophages (alamarBlue assay, 48 h) with 2.5, 5, 10, 20 and 40 µg/ml rRv0297PGRS (12.42% to 36.07%); no significant change in RAW-ΔTLR4 cells [3]: 36.1%
